# From patent US8871276B2, “Beta-casein assemblies for mucosal delivery of therapeutic bioactive agents” (Technion Research and Development Foundation Ltd., priority 2008, dated 2014)
# B1: β-casein: bovine β-casein self-assembled into unloaded micelles in acidic or neutral buffer (protein, UniProt P02666 16-224, looked up)
# Beta-casein: RELEELNVPGEIVESLSSSEESITRINKKIEKFQSEEQQQTEDELQDKIHPFAQTQSLVYPFPGPIPNSLPQNIPPLTQTPVVVPPFLQPEVMGVSKVKEAMAPKHKEMPFPKYPVEPFTESQSLTLTDVENLHLPLPLLQSWMHQPHQPLPPTVMFPPQSVLSLSQSKVLPVPQKAVPYPQRDMPIQAFLLYQEPVLGPVRGPFPIIV
# modifications: self-assembled micelles
# notes: bovine β-casein self-assembled into unloaded micelles in acidic or neutral buffer
# How the values were obtained:
# Assay type in all cases: physicochemical
# [1] = Density measurements of β-casein solutions (density meter DMA 5000); details: 20 mg/ml β-casein, pH 2.6, lactic acid solution
# Experimental: The specific gravity of the solvents and the protein solutions was measured by a density meter DMA 5000 from Anton-Paar at various temperatures. These measurements enabled an accuracy of six digits.
# Density measurements of the β-casein solutions at pH 2.6 as a function of temperature are summarized in Table 1 Density measurements were performed using a density meter DMA 5000 from Anton-Paar, reaching an accuracy of six digits.
# [2] = Analytical ultracentrifugation (sedimentation equilibrium)
# Experimental: Sedimentation equilibrium experiments were performed at 24° C. using a Beckman Optima XL-A (Palo Alto, Calif.) analytical centrifuge at 6,000, 10,000, and 12,000 rpm for the low-pH solutions and at 4,000, 6,000, and 8,000 rpm for the pH 7.0 solutions. Data were collected at 280 nm. The β-casein solutions were studied at concentrations ranging from 0.2 to 10.0 mg/mL at pH 2.6 and from 0.2 to 2 mg/mL at pH 7.0 and an ionic strength of 0.1. […] The average apparent molecular weight of the micelles at the various protein concentrations was calculated following methods well known in the art (The partial specific volume νj of the solute was taken to be […], and a solution density F of 1.0044 g/cm^3 was measured). At β-casein concentrations of 2 mg/mL and above under low pH conditions, the plot of the natural logarithm of the measured absorbance versus the square of the radius from the axis of rotation was not linear. To estimate Nagg, the limiting slope toward the outer edge of the sample cell was used to provide d ln(c)/dr^2. The molecular weight calculated using this slope was divided by the monomer molecular weight calculated from the β-casein amino acid sequence (24,000).
# To determine the aggregation number of the micelles at pH 2.6, analytical ultracentrifugation experiments were conducted at various protein concentrations and at […] and IS of 0.002. Sample data are plotted in FIG. 7, showing data with the protein concentration at 5 mg/ml, and ionic strength (IS) of 0.002. […] The aggregation numbers calculated from the slope of this line confirmed that the protein is monomeric at these concentrations. At concentrations higher than the CMC, two regions could be defined, indicating the presence of two protein populations: monomers at relatively short radii (i.e., in FIG. 7 at r<6.5 or r2<43) and assemblies at large radii. The micelles at pH 2.6 are characterized by a small aggregation number of 3 around the CMC and 6 at higher concentrations. In contrast, Nagg of 20 was measured at pH 7.0 and ionic strength 0.1. […]
# [3] = Dynamic light scattering (DLS) size distribution
# Experimental: DLS and Zeta potential measurements performed on a combined DLS and zeta potential analyzer (Nicomp 380 ZLS zeta potential/particle sizer, USA), at 25° C. were performed for size distribution and electrostatics characterization. For DLS measurements the scattered light intensity was detected with an Avalanche Photo Diode (APD) detector, used at a fixed angle of 90°. Laser wavelength was 658 nm, operating at 90 mW. Mono- bi- or tri-modal distributions were calculated from the scattered light intensity fluctuations, by Nicomp™ cumulants analysis of the intensity autocorrelation function. Zeta potential measurements were performed in triplicate.
# [4] = 0.5% β-casein, empty or loaded 1:8 celecoxib, pH ~7
molecule,measurement,setting,value
B1,Solution density,[1]; 4 °C,1.01 g/mL
same,Solution density,[1]; 16 °C,1.009 g/mL
same,Solution density,[1]; 25 °C,1.007 g/mL
same,Solution density,[1]; 40 °C,1.002 g/mL
same,Aggregation number (ultracentrifugation),"[2]; pH 2.6, around the CMC",3
same,Aggregation number (ultracentrifugation),"[2]; pH 2.6, concentrations higher than the CMC, 24-25 °C",6
same,Nagg (ultracentrifugation),"[2]; pH 7.0, ionic strength 0.1",20
same,"Micelle diameter (DLS), after lyophilization and re-suspension",[3]; [4],21 nm
same,"Micelle diameter (DLS), before drying",[3]; [4],19 nm
same,Micelle diameter (DLS),"[3]; 2 wt % β-casein, empty or loaded 1:1 budesonide, hepes buffer pH 7.0",19.6±3.4 nm
